The values that follow come from publication PMC3334367 (Molecular Cell, 2012).

The target of this experiment is T1, GST-RNC (GST fused N-terminal RNC domain of Kog1, amino acids 1-637) (yeast, UniProt P38873 1-637).
T1 sequence (looked up): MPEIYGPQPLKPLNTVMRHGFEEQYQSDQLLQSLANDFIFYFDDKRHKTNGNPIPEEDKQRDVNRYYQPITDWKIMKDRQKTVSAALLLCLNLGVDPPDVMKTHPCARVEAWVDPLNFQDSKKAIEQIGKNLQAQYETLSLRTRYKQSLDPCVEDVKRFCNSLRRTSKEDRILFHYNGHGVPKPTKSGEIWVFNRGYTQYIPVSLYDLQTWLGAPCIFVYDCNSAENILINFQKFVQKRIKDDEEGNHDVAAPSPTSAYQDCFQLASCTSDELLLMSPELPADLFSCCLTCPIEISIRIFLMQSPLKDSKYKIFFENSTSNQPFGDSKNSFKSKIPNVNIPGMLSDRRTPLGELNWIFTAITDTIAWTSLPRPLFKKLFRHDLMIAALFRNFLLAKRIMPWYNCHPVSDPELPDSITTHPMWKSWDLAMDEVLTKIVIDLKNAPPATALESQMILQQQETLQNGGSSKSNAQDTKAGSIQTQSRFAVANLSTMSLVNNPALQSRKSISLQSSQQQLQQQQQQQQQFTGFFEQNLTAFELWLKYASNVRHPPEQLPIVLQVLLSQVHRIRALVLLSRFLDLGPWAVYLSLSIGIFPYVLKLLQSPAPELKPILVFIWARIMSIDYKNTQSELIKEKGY
Put plainly: pull-down.

B1: His tagged recombinant Tap42 (natural protein, yeast, UniProt Q04372 1-366, looked up)
chain: MASVTEQFNDIISLYSTKLEHTSLRQDSPEYQGLLLSTIKKLLNLKTAIFDRLALFSTNETIDDVSTASIKFLAVDYYLGLLISRRQSNDSDVAQRQSMKLIYLKKSVESFINFLTLLQDYKLLDPLVGEKLGNFKDRYNPQLSELYAQPKNNKDLSGAQLKRKEKIELFQRNKEISTKLHCLELELKNNDEDHDHDELLRELYLMRLHHFSLDTINNIEQNLFECEMLSNFLKNSVHEVKSSGTQIRKESNDDDSTGFTDKLENINKPLIDKKGQVLRNFTLVDKRQQLQQKVRGYGQYGPTMSVEEFLDKEFEEGRVLQGGEEPEQAPDEENMDWQDRETYKAREWDEFKESHAKGSGNTMNRG
Turning to B1, the binding result is recorded as “binds”.

B2: His tagged recombinant Rho1 (natural protein, yeast, UniProt P06780 1-209, looked up)
chain: MSQQVGNSIRRKLVIVGDGACGKTCLLIVFSKGQFPEVYVPTVFENYVADVEVDGRRVELALWDTAGQEDYDRLRPLSYPDSNVVLICFSIDLPDSLENVQEKWIAEVLHFCQGVPIILVGCKVDLRNDPQTIEQLRQEGQQPVTSQEGQSVADQIGATGYYECSAKTGYGVREVFEAATRASLMGKSKTNGKAKKNTTEKKKKKCVLL
B2: the binding result is “binds”.
